The values that follow come from the RNAGym collection of RNA variant scans (doi:10.1093/molbev/msab373).

Sequences and labels used below:
B1: Azoarcus group I ribozyme (parent)
chain: GUGCCUUGCGCCGGGAAACCACGCAAGGGAUGGUGUCAAAUUCGGCGAAACCUAAGCGCCCGCCCGGGCGUAUGGCAACGCCGAGCCAAGCUUCGGCGCCUGCGCCGAUGAAGGUGUAGAGACUAGACGGCACCCACCUAAGGCAAACGCUAUGGUGAAGGCAUAGUCCAGGGAGUGGCGAAAGUCACACAAACCGG

The data set covers variants of B1. Briefly: reverse-splicing fitness (ratio to wild type); higher = more active; in vitro selection; Mg2+ level not given. Put shortly: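 An in vitro group I ribozyme library with randomized positions was T7-transcribed and gel-purified. In triplicate, 10 pmol RNA in EPPS pH 7.5 was reacted with 50 pmoles of a 30-nt RNA substrate for 1 h at 37 °C across several added MgCl2 levels (1–48 mM), then stopped with EDTA. Products were reverse transcribed from a substrate-complementary primer, PCR-amplified and sequenced (HiSeq 4000). Fitness is a variant's read proportion after selection over that before, normalised to wild type.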
C82A A111U A120G A145U C169A U176C: the reverse-splicing fitness worked out at 0.0107.
Consider C82A A111U A120G A145U C169A U176G, for which the reverse-splicing fitness came out at 0.00477.
As for C82A A111U A120G A145U C169A U176A, the figure is 0.012; as for C82A A111U A120G A145G C150U C169G, 0.0105.
With C82A A111U A120G A145G C150U C169U the figure was 0.0104.
As for C82A A111U A120G A145G C150U C169A, the figure is 0.0106; as for C82A A111U A120G A145G C150G U176A, 0.00704.
For the variant C82A A111U A120G A145G C150G U176G, the reverse-splicing fitness was 0.00604.
For C82A A111U A120G A145G C150G U176C, the reverse-splicing fitness was 0.0105.
With C82A A111U A120G A145U C169U U176C the figure was 0.0159; with C82A A111U A120G A145U C169U U176G, 0.0047; with C82A A111U A120G A145U C169U U176A, 0.0196.
Take C82A A111U A120G A145U C150G U176G: the reverse-splicing fitness is 0.00424.
As for C82A A111U A120G A145U C150G U176C, the figure is 0.00834.
As to C82A A111U A120G A145U C150G U176A, the reverse-splicing fitness is 0.00602.
With C82A A111U A120G C150A C169G, the reverse-splicing fitness came to 0.0102.
As for C82A A111U A120G C150A C169A, the figure is 0.0108.
As for C82A A111U A120G C150A C169U, the figure is 0.00869; as for C82A A111U A120G A145U C169G U176C, 0.014; as for C82A A111U A120G A145U C169G U176G, 0.00437.
Consider C82A A111U A120G A145U C169G U176A, for which the reverse-splicing fitness was 0.0119.
As for C82A A111U A120G A145U, the figure is 0.0153; as for C82A A111U A120G A145G, 0.0152.
Turning to C82A A111U A120U A145C C150G C169A U176A, the reverse-splicing fitness is 0.00316.
With C82A A111U A120U A145C C150G C169A U176C the figure was 0.00302.
With C82A A111U A120U A145C C150G C169A U176G, the reverse-splicing fitness is 0.00234.
With C82A A111U A120G A145G C150G C169U U176G, the reverse-splicing fitness is 0.00707.
With C82A A111U A120G A145G C150G C169U U176C the figure was 0.013.
As for C82A A111U A120G A145G C150G C169U U176A, the figure is 0.0121; as for C82A A111U A120G A145U U176A, 0.0132; as for C82A A111U A120G A145U U176G, 0.00522.
As to C82A A111U A120G A145U U176C, the reverse-splicing fitness worked out at 0.0145.
With C82A A111U A120G A145U C150A C169U U176A the figure was 0.0193.
Turning to C82A A111U A120G A145U C150A C169U U176C, the reverse-splicing fitness worked out at 0.0164.
Take C82A A111U A120G A145U C150A C169U U176G: the reverse-splicing fitness came out at 0.00491.
In the case of C82A A111U A120G C150U C169U U176A, the reverse-splicing fitness came out at 0.0197.
For C82A A111U A120G C150U C169U U176C, the reverse-splicing fitness was determined as 0.0177.
C82A A111U A120G C150U C169U U176G: the reverse-splicing fitness came out at 0.00708.
Turning to C82A A111U A120U A145C C150G U176A, the reverse-splicing fitness stood at 0.00326.
With C82A A111U A120U A145C C150G U176C the figure was 0.00415.
As for C82A A111U A120U A145C C150G U176G, the figure is 0.00265; as for C82A A111U A120U A145C C169U U176G, 0.00193.
Turning to C82A A111U A120U A145C C169U U176A, the reverse-splicing fitness is 0.00334.
As for C82A A111U A120U A145C C169U U176C, the figure is 0.0036; as for C82A A111U A120G C169A, 0.0102; as for C82A A111U A120G C169G, 0.0106.
With C82A A111U A120G C169U the figure was 0.00987; with C82A A111U A120G C150A C169G U176G, 0.0059; with C82A A111U A120G C150A C169G U176A, 0.0215.
As to C82A A111U A120G C150A C169G U176C, the reverse-splicing fitness worked out at 0.0227.
As for C82A A111U A120G C150U C169A U176G, the figure is 0.00525; as for C82A A111U A120G C150U C169A U176C, 0.0163.
As for C82A A111U A120G C150U C169A U176A, the figure is 0.0156; as for C82A A111U A120U A145C C150A C169U U176G, 0.00186; as for C82A A111U A120U A145C C150A C169U U176C, 0.00287.
Consider C82A A111U A120U A145C C150A C169U U176A, for which the reverse-splicing fitness amounted to 0.00277.
With C82A A111U A120U A145C C150U C169G U176A the figure was 0.00366; with C82A A111U A120U A145C C150U C169G U176G, 0.00248; with C82A A111U A120U A145C C150U C169G U176C, 0.00274.
On to C82A A111U A120G A145C C150U C169A, for which the reverse-splicing fitness was 0.00869.
As to C82A A111U A120G A145C C150U C169G, the reverse-splicing fitness stood at 0.00823.
As for C82A A111U A120G A145C C150U C169U, the figure is 0.00725; as for C82A A111U A120G A145U C150A C169G U176A, 0.0146; as for C82A A111U A120G A145U C150A C169G U176G, 0.00492.
As to C82A A111U A120G A145U C150A C169G U176C, the reverse-splicing fitness is 0.0161.
Regarding C82A A111U A120G C150A C169A U176G, the reverse-splicing fitness worked out at 0.00665.
As to C82A A111U A120G C150A C169A U176A, the reverse-splicing fitness turned out to be 0.0214.
With C82A A111U A120G C150A C169A U176C the figure was 0.0237; with C82A A111U A120G A145G C169A U176A, 0.0222.
Regarding C82A A111U A120G A145G C169A U176C, the reverse-splicing fitness was 0.0259.
With C82A A111U A120G A145G C169A U176G the figure was 0.00503; with C82A A111U A120U A145C C150A C169G U176A, 0.00303.
With C82A A111U A120U A145C C150A C169G U176C, the reverse-splicing fitness came to 0.00303.
Turning to C82A A111U A120U A145C C150A C169G U176G, the reverse-splicing fitness is 0.0026.
For C82A A111U A120G A145U C150A U176C, the reverse-splicing fitness came to 0.0152.
With C82A A111U A120G A145U C150A U176G the figure was 0.00656; with C82A A111U A120G A145U C150A U176A, 0.0128.
With C82A A111U A120U A145C C150U C169A U176A the figure was 0.00281.
Regarding C82A A111U A120U A145C C150U C169A U176G, the reverse-splicing fitness came to 0.00224.
C82A A111U A120U A145C C150U C169A U176C: the reverse-splicing fitness was found to be 0.00232.
Turning to C82A A111U A120G A145C C169G U176G, the reverse-splicing fitness was 0.00418.
As for C82A A111U A120G A145C C169G U176C, the figure is 0.0184; as for C82A A111U A120G A145C C169G U176A, 0.0247.
